# How the values were obtained:
# [1] = target: Aβ (1-40), beta-amyloid protein of Alzheimer's disease (UniProt P05067); assay: cell-based or functional assay
# [2] = target: Aβ (1-40), beta-amyloid protein of Alzheimer's disease (UniProt P05067); assay: solid phase binding immunoassay, Aβ (1-40) on microtiter wells, laminin in solution, anti-laminin detection, one-site fit
# Sequence of Aβ (1-40), beta-amyloid protein of Alzheimer's disease (P05067 672-711 limits assumed): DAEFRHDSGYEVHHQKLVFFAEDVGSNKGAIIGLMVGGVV
substance,measurement,setting,value
"Engelbreth-Holm-Swarm (EHS) mouse tumor laminin, P02468 34-1607","Thioflavin T fluorescence (Aβ (1-40) amyloid fibril formation), 25 µM Aβ with 100 nM laminin, 1 week",[1],27.1 fold lower
same,"Thioflavin T fluorescence (Aβ (1-40) amyloid fibril formation), 25 µM Aβ with 100 nM laminin, 1 hour",[1],2.9 fold lower
same,"Thioflavin T fluorescence (Aβ (1-40) amyloid fibril formation), 25 µM Aβ with 100 nM laminin, 1 day",[1],4.6 fold lower
same,"Thioflavin T fluorescence (Aβ (1-40) amyloid fibril formation), 25 µM Aβ with 100 nM laminin, 3 days",[1],30.6 fold lower
same,"Thioflavin T fluorescence (Aβ fibrillogenesis), second study, 25 µM Aβ with 100 nM laminin, 1 week (fold decrease)",[1],21
same,"Thioflavin T fluorescence (Aβ fibrillogenesis), second study, 25 µM Aβ with 100 nM laminin, 1 day (fold decrease)",[1],9
same,"Thioflavin T fluorescence (Aβ fibrillogenesis), second study, 25 µM Aβ with 100 nM laminin, 3 days (fold decrease)",[1],9
same,"dissolution of pre-formed Aβ amyloid fibrils (Thioflavin T fluorometry, 4 days), 16 nM laminin",[1],25%
same,"dissolution of pre-formed Aβ amyloid fibrils (Thioflavin T fluorometry, 4 days), 31 nM laminin",[1],28%
same,"dissolution of pre-formed Aβ amyloid fibrils (Thioflavin T fluorometry, 4 days), 63 nM laminin",[1],39%
same,"dissolution of pre-formed Aβ amyloid fibrils (Thioflavin T fluorometry, 4 days), 125 nM laminin",[1],41%
same,Kd,[2],2.7 nM

# From patent publication US20020111309A1
